Test results reported in PMC2323298 (PLoS Pathogens, 2007).

How the values were obtained:
[1] = target: T1, AMA1 (apical membrane antigen 1) domains I+II (Plasmodium falciparum 3D7, UniProt Q7KQK5); test: crystal structure; AMA1 domains I+II and 1F9 Fab mixed (Fab in slight excess); 20 mM MES pH 6.0, 10 mM MnCl2, 6% PEG 3350, hanging drops; two crystal forms; conditions: both partners purified
T1 construct: also called AMA1 domains I+II

[2] = target: T2, 3D7 AMA1 domain I expressed on M13 phage (Plasmodium falciparum 3D7, UniProt Q7KQK5); test: ELISA; conditions: one partner purified
T2 construct: also called 3D7 domain I; domain I AMA1

[3] = target: T3, Full-length 3D7 AMA1 ectodomain (Plasmodium falciparum 3D7, UniProt Q7KQK5); test: ELISA; competition ELISA: 100 ul of 0.3 ug/ml full-length AMA1 ectodomain immobilised on plastic; dilutions of human plasma added, followed by 10 ul of 3.0 ug/ml mAb; peroxidase-conjugated anti-mouse antibodies; conditions: both partners purified
T3 construct: also called recombinant full-length 3D7 AMA1 ectodomain; full-length recombinant AMA1

Row | Binder | binding result [1] | binding result [2] | binding result [3]
1 | 1F9 Fab fragment (Fab, V domains shown, also called Fab 1F9) VH: EVQLQQSGAELLRPGASVKLSCIVSGFKIKDTSMHWVKQRPEQGLEWIGRIDPANDNSEYDPKFQGKATITADTSSNTAYLQLSSLTSEDTAVYYCTLSHFWGQGTTLTVSS VL: SIVMTQTPKFLPVSAGDRVTIICKASQSVSNDVVWYQQKPGQSPKLLIYYASIRYTGVPDRFTGSGYGTDFTFTISTVQVEDLAVYFCQQGFSSPRTFGGGTKLEIN | binds |  | 
2 | Mouse monoclonal antibody 1F9 (isotype IgG2b with a Kappa light chain) (antibody, V domains shown, also called mAb 1F9) VH: EVQLQQSGAELLRPGASVKLSCIVSGFKIKDTSMHWVKQRPEQGLEWIGRIDPANDNSEYDPKFQGKATITADTSSNTAYLQLSSLTSEDTAVYYCTLSHFWGQGTTLTVSS VL: SIVMTQTPKFLPVSAGDRVTIICKASQSVSNDVVWYQQKPGQSPKLLIYYASIRYTGVPDRFTGSGYGTDFTFTISTVQVEDLAVYFCQQGFSSPRTFGGGTKLEIN |  | binds | binds
